# From article PMC8596624
# B1: MSA1T (structured_DNA)
# DNA: TTCCGGTTAATTTATGCTCTACCCGTCCACCTACCGGAA
# B2: M1C (ssDNA)
# DNA: CTATATCCCTTTAAGCCTGTGGGTCCACGAATCTACCTC
# B3: M5C (ssDNA)
# DNA: GCGTTCGGAGTGGGTCGTGCGGCGCGGGACGAGTGGTGT
# B4: DMC (ssDNA)
# DNA: CTATATCCCTTTAAGCCTGTGGGTCCACGAATCTACCTCTTTTTTTTTTTTTTTTTTTTTTTTTTTTTTGCGTTCGGAGTGGGTCGTGCGGCGCGGGACGAGTGGTGT
# B5: MSA1 (structured_DNA)
# DNA: TTACGTCAAGGTGTCACTCCCACTTTCCGGTTAATTTATGCTCTACCCGTCCACCTACCGGAAGCATCTCTTTGGCGTG
# B6: MSA5 (structured_DNA)
# DNA: TTACGTCAAGGTGTCACTCCACGGGTTTGGCGTCGGGCCTGGCGGGGGGATAGTGCGGTGGAAGCATCTCTTTGGCGTG
# B7: DSA1N5-SH (structured_DNA)
# DNA: TTCCGGTTAATTTATGCTCTACCCGTCCACCTACCGGAATTTTTTTTTTTTTTTTTTTTTTTTTTTTTTACGGGTTTGGCGTCGGGCCTGGCGGGGGGATAGTGCGGTTTTT
# modifications: 3' thiol (3ThioMC3-D)
# B8: MSA1T-SH (structured_DNA)
# DNA: TTCCGGTTAATTTATGCTCTACCCGTCCACCTACCGGAATTTT
# modifications: 3' thiol (3ThioMC3-D)
# B9: MSA5T-SH (structured_DNA)
# DNA: ACGGGTTTGGCGTCGGGCCTGGCGGGGGGATAGTGCGGTTTTT
# modifications: 3' thiol (3ThioMC3-D)
# Key:
# [1] = molecular target: T1, WHTS, trimeric spike protein, wild-type (Wuhan) (SARS-CoV-2 (Wuhan), UniProt P0DTC2 14-1213); assay: dot blot
# [2] = molecular target: WH-S1, spike S1 subunit, wild-type (SARS-CoV-2 (Wuhan), UniProt P0DTC2 14-685); assay: dot blot
# [3] = molecular target: T1, WHTS, trimeric spike protein, wild-type …; assay: electrochemical impedance
# [4] = molecular target: T1, WHTS, trimeric spike protein, wild-type …; assay: electrochemical impedance; remark: listed apart in the source
# [5] = molecular target: T1, WHTS, trimeric spike protein, wild-type …; assay: electrochemical impedance; remark: listed apart in the source
binder,measurement,setting,value
B1,Kd,[1],11.9 ± 1.8 nM
B2,binding result,[1],no binding
B3,binding result,[1],no binding
B4,binding result,[1],no binding
B5,binding result,[2],binds
B6,binding result,[2],binds
B7,binding result,[3],binds
B8,binding result,[4],binds
B9,binding result,[5],binds
